Experimental data: article doi:10.1101/2021.08.12.456111
Residue numbers refer to the chain shown, from its start. Numbers in names are those of the source. Blank lines part the entries; values can stand above or below the binder they belong to.

Key:
[1] = target: FimV_(SoHubP), C-terminal FimV domain of S. oneidensis HubP (S. oneidensis); experiment: interferometric scattering mass spectrometry
[2] = target: FimV_(SoHubP), C-terminal FimV domain of S. oneidensis HubP (S. oneidensis); experiment: BLI

stoichiometry N (GGDEF per FimV (2:2 complex)) [1]: 1 | Kd [2]: 200 nM
B1: MBP-GGDEF_(SoPdeB), GGDEF domain of S. oneidensis PdeB, wild type (domain or fragment)
chain: RSLAVCYLDLEQFKLINDSCGHTAGDRMLAMVARAIQSCLGPQELLARIGGDEFGLVICDRTALAVAQLLKQIIAQVSLQVLHDKNCNYKVGLSIGVAFGRAPYINAQELLKDADIACIAAKAKGTNQIHIYDD

fold increase of KD against wild type [2]: 100 fold
B2: SoGGDEF_(PdeB) K575S (domain or fragment)
chain: B1 chain with K122S

fold increase of KD against wild type [2]: 10 fold
B3: SoGGDEF_(PdeB) K577S (domain or fragment)
chain: B1 chain with K124S
